Source: patent publication US20220041721A1 (WUHAN YZY BIOPHARMA, published 2022)
Where a chain is given by its changes, count along the chain named. Numbers in names are those of the source.

B1: MS-hCD3-IC15 (bispecific antibody, human IgG1, kappa, N297Q)
scFv: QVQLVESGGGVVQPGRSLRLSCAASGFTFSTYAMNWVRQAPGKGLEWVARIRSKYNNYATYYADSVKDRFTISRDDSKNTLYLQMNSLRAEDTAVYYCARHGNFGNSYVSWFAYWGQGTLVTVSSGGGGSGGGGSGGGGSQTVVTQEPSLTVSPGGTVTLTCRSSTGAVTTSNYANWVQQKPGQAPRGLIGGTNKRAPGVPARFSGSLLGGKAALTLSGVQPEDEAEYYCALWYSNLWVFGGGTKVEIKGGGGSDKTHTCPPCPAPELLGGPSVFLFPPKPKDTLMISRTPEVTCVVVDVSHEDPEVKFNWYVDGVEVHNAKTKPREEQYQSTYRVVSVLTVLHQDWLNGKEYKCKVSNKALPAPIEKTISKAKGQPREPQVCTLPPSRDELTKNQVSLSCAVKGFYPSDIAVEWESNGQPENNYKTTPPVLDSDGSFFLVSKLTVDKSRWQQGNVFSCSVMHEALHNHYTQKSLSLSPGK
heavy: EVKLDETGGGLVQPGRPMKLSCVASGFTFSDYWMNWVRQSPEKGLEWVAQIRNKPYNYETYYSDSVKGRFTISRDDSKSSVYLQMNNLRVEDMGIYYCTGSYYGMDYWGQGTSVTVSSASTKGPSVFPLAPSSKSTSGGTAALGCLVKDYFPEPVTVSWNSGALTSGVHTFPAVLQSSGLYSLSSVVTVPSSSLGTQTYICNVNHKPSNTKVDKKVEPKSCDKTHTCPPCPAPELLGGPSVFLFPPKPKDTLMISRTPEVTCVVVDVSHEDPEVKFNWYVDGVEVHNAKTKPREEQYQSTYRVVSVLTVLHQDWLNGKEYKCKVSNKALPAPIEKTISKAKGQPREPQVYTLPPCRDELTKNQVSLWCLVKGFYPSDIAVEWESNGQPENNYKTTPPVLDSDGSFFLYSKLTVDKSRWQQGNVFSCSVMHEALHNHYTQKSLSLSPGK
light: DVVMTQTPLSLPVSLGDQASISCRSSQSLVHSNGNTYLRWYLQKPGQSPKVLIYKVSNRFSGVPDRFSGSGSGTDFTLKISRVEAEDLGVYFCSQSTHVPWTFGGGTKLEIKRTVAAPSVFIFPPSDEQLKSGTASVVCLLNNFYPREAKVQWKVDNALQSGNSQESVTEQDSKDSTYSLSSTLTLSKADYEKHKVYACEVTHQGLSSPVTKSFNRGEC
B2: IC-2 (bispecific antibody, human IgG1, kappa)
scFv: EVQLVESGGGLVQPKGSLKLSCAASGFTFNTYAMNWVRQAPGKGLEWVARIRSKYNNYATYYADSVKDRFTISRDDSQSILYLQMNNLKTEDTAMYYCVRHGNFGNSYVSWFAYWGQGTLVTVSSGGGGSGGGGSGGGGSQAVVTQESALTTSPGETVTLTCRSSTGAVTTSNYANWVQEKPDHLFTGLIGGTNKRAPGVPARFSGSLIGDKAALTITGAQTEDEAIYFCALWYSNLWVFGGGTKLTVLGDGDGSDKTHTCPPCPAPEFEGGPSVFLFPPKPKDTLMISRTPEVTCVVVDVSHEDPEVKFNWYVDGVEVHNAKTKPREEQYNSTYRVVSVLTVLHQDWLNGKEYKCKVSNKALPASIEKTISKAKGQPREPQVCTLPPSRDELTKNQVSLSCAVKGFYPSDIAVEWESNGQPENNYKTTPPVLDSDGSFFLVSKLTVDKSRWQQGNVFSCSVMHEALHNHYTQKSLSLSPGK
heavy: B1 heavy with L235F, L236E, Q298N, P332S
light: B1 light
notes: Comparative: 4420 Fab arm and anti-CD3 scFv (SP34)-Fc fusion peptide, CH2 FES
B3: MS-hCD3-IC17 (bispecific antibody, human IgG1, kappa)
scFv: QVQLVESGGGVVQPGRSLRLSCAASGFTFSTYAMNWVRQAPGKGLEWVARIRSKYNNYATYYADSVKDRFTISRDDSKNTLYLQMNSLRAEDTAVYYCARHGNFGNSYVSWFAYWGQGTLVTVSSGGGGSGGGGSGGGGSQTVVTQEPSLTVSPGGTVTLTCRSSTGAVTTSNYANWVQQKPGQAPRGLIGGTNKRAPGVPARFSGSLLGGKAALTLSGVQPEDEAEYYCALWYSNLWVFGGGTKVEIKGGGGSDKTHTCPPSPAPPVAGPSVFLFPPKPKDTLMISRTPEVTCVVVDVSHEDPEVQFNWYVDGVEVHNAKTKPREEQFNSTFRVVSVLTVVHQDWLNGKEYKCKVSNKGLPAPIEKTISKTKGQPREPQVCTLPPSRDELTKNQVSLSCAVKGFYPSDIAVEWESNGQPENNYKTTPPVLDSDGSFFLVSKLTVDKSRWQQGNVFSCSVMHEALHNHYTQKSLSLSPGK
heavy: EVKLDETGGGLVQPGRPMKLSCVASGFTFSDYWMNWVRQSPEKGLEWVAQIRNKPYNYETYYSDSVKGRFTISRDDSKSSVYLQMNNLRVEDMGIYYCTGSYYGMDYWGQGTSVTVSSASTKGPSVFPLAPSSKSTSGGTAALGCLVKDYFPEPVTVSWNSGALTSGVHTFPAVLQSSGLYSLSSVVTVPSSSLGTQTYICNVNHKPSNTKVDKKVEPKSCDKTHTCPPSPAPPVAGPSVFLFPPKPKDTLMISRTPEVTCVVVDVSHEDPEVQFNWYVDGVEVHNAKTKPREEQFNSTFRVVSVLTVVHQDWLNGKEYKCKVSNKGLPAPIEKTISKTKGQPREPQVYTLPPCRDELTKNQVSLWCLVKGFYPSDIAVEWESNGQPENNYKTTPPVLDSDGSFFLYSKLTVDKSRWQQGNVFSCSVMHEALHNHYTQKSLSLSPGK
light: B1 light
notes: 4420 Fab arm and anti-CD3 scFv (VH2a/VL5)-Fc fusion peptide, CH2 SG2; also called MS-hCD3-17
B4: IC-5 (bispecific antibody, human IgG1, kappa)
scFv: EVQLVESGGGLVQPGGSLRLSCAASGFTFNTYAMNWVRQAPGKGLEWVGRIRSKYNNYATYYADSVKGRFTISRDDSKNTLYLQMNSLRAEDTAVYYCARHGNFGNSYVSWFAYWGQGTLVTVSSGGGGSGGGGSGGGGSQAVVTQEPSLTVSPGGTVTLTCGSSTGAVTTSNYANWVQQKPGQAPRGLIGGTNKRAPGVPARFSGSLLGGKAALTLSGAQPEDEAEYYCALWYSNLWVFGGGTKLEIKGGGGSDKTHTCPPCPAPEFEGGPSVFLFPPKPKDTLMISRTPEVTCVVVDVSHEDPEVKFNWYVDGVEVHNAKTKPREEQYNSTYRVVSVLTVLHQDWLNGKEYKCKVSNKALPASIEKTISKAKGQPREPQVCTLPPSRDELTKNQVSLSCAVKGFYPSDIAVEWESNGQPENNYKTTPPVLDSDGSFFLVSKLTVDKSRWQQGNVFSCSVMHEALHNHYTQKSLSLSPGK
heavy: B1 heavy with L235F, L236E, Q298N, P332S
light: B1 light
notes: Comparative: 4420 Fab arm and anti-CD3 scFv (CD3 antibody 2 VH/VL)-Fc fusion peptide
B5: IC-3 (bispecific antibody, human IgG1, kappa, N297Q)
scFv: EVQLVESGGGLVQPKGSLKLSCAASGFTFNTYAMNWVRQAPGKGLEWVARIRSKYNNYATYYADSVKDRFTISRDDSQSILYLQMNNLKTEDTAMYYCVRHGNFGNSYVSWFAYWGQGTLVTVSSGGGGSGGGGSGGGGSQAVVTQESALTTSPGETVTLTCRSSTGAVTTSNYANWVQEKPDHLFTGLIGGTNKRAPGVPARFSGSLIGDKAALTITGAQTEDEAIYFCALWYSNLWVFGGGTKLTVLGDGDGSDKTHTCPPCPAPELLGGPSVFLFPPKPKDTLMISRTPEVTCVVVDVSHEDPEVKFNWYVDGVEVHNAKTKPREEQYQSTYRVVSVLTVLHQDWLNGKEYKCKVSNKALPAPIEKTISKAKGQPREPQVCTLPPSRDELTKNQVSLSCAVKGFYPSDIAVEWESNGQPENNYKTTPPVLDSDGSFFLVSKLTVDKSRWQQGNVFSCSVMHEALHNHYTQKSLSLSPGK
heavy: B1 heavy
light: B1 light
notes: Comparative: 4420 Fab arm and anti-CD3 scFv (SP34)-Fc fusion peptide, CH2 N297Q
B6: MS-hCD3-IC18 (bispecific antibody, human IgG1, kappa)
scFv: B3 scFv with F112A, V178F
heavy: B3 heavy
light: B1 light
notes: 4420 Fab arm and anti-CD3 scFv (VH2j/VL5a)-Fc fusion peptide, CH2 SG2
B7: MS-hCD3-IC16 (bispecific antibody, human IgG1, kappa)
scFv: B4 scFv with E1Q, L11V, G16R, N30S, G49A, G68D, A142T, G163R, A220V, L246V
heavy: B1 heavy with L235F, L236E, Q298N, P332S
light: B1 light
notes: 4420 Fab arm and anti-CD3 scFv (VH2a/VL5)-Fc fusion peptide, CH2 FES
B8: Y150-F9-7 (bispecific antibody, human IgG1, lambda)
scFv: B4 scFv with E1Q, L11V, G16R, N30S, G49A, G68D, A142T, G163R, A220V, L246V
heavy: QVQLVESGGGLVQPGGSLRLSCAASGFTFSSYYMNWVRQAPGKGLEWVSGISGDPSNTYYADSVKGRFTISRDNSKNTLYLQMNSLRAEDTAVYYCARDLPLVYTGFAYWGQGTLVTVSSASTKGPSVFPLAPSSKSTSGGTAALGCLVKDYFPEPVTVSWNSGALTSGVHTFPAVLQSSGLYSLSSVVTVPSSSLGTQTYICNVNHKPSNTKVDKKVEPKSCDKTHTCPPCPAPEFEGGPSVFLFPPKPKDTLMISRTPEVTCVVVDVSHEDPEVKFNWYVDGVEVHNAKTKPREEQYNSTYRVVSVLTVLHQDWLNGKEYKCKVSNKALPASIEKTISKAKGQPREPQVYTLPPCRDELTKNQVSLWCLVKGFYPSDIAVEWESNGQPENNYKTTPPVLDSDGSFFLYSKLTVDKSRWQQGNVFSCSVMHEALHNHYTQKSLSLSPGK
light: DIELTQPPSVSVAPGQTARISCSGDNLRHYYVYWYQQKPGQAPVLVIYGDSKRPSGIPERFSGSNSGNTATLTISGTQAEDEADYYCQTYTGGASLVFGGGTKLTVLGQPKAAPSVTLFPPSSEELQANKATLVCLISDFYPGAVTVAWKADSSPVKAGVETTTPSKQSNNKYAASSYLSLTPEQWKSHRSYSCQVTHEGSTVEKTVAPTECS
B9: Y150-F9-6 (bispecific antibody, human IgG1, lambda)
scFv: B2 scFv
heavy: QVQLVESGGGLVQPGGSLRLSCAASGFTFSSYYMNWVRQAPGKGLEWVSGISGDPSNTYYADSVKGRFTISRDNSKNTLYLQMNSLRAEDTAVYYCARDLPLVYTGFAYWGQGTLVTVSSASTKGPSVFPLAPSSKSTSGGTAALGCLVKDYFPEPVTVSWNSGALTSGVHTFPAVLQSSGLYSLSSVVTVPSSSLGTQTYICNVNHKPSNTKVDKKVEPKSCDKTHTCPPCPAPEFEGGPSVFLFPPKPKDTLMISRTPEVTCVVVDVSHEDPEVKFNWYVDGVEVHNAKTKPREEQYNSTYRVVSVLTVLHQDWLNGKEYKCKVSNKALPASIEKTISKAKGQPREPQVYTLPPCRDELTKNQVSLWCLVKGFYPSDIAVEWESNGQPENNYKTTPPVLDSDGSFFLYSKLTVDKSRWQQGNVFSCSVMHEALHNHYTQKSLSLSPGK
light: B8 light
notes: Comparative: anti-CD38 (MOR) Fab arm and anti-CD3 scFv (SP34)-Fc fusion peptide; 150 is used

These binders were tested against T1, human CD3 (human, UniProt P07766 23-207) (assay: cell-based or functional assay).
With B1 the “Cytotoxicity EC50 against lung cancer cells H358 (human PBMC 10:1, 48 h); control with CD3 arm only, no tumor antigen arm” value was 0.172 µg/mL.

Each binder was assayed against T1, human CD3 (assay: flow cytometry on human CD3 positive T cells).
B1 was tested, and the EC50 was 194 nM. B2 gave an EC50 of 172 nM. With B3 the EC50 was 122 nM. Work on B4 yielded an EC50 of 122 nM. B5 showed an EC50 of 155 nM. For B6, the EC50 was 582 nM. B7 gave an EC50 of 170 nM. B8 showed an EC50 of 426 nM. B9 showed an EC50 of 111 nM.

What follows are binders tested against T2, monkey CD3 (monkey) (assay: flow cytometry on monkey CD3 positive T cells).
T2 construct: whole, on cells; also called CD3 on monkey CD3 positive T cells
B1 was tested, and the EC50 was 378 nM. For B2, the EC50 was 312 nM. B3 was tested, and the EC50 was 222 nM. With B4 the EC50 was 161 nM. B5 was tested, and the EC50 was 285 nM. Work on B6 yielded an EC50 of 680 nM. Work on B7 yielded an EC50 of 295 nM. Work on B8 yielded an EC50 of 422 nM. Work on B9 yielded an EC50 of 130 nM.

The binders below were run against T3, Human CD38 (human, UniProt P28907 1-300) (assay: flow cytometry on CD38 positive tumor cells (MM.1S or RPMI 8226)).
T3 construct: whole, on cells; the assays used the protein on tumor cells
Binder B8 has an EC50 of 103 nM. B9 gave an EC50 of 27.1 nM.
